In article doi:10.1101/2025.07.11.664054:

Experiments:
Test in all cases: ITC
[1] = molecular target: purified OsHIPP21-HMA (rice)
[2] = molecular target: purified OsHPP09-HMA (rice)
[3] = molecular target: purified OsHPP10-HMA (rice)
[4] = molecular target: purified OsHPP11-HMA (rice)

Substance: recombinant AVR-Pia (from UniProt B9WZW9 1-85) (natural protein)
- Kd [1]: 1.29 µM
- Kd [2]: 0.115 µM
- Kd [3]: 5.26 µM
- Kd [4]: 0.772 µM
